Like-named read-outs stand apart in the source and are kept apart here.
Legend:
Test in all cases: BLI heatmap
[1] = biological target: T1, LA peptide LAKLDEESILKQK (XAKLDEESILKQK, X = L)
T1 construct: Immobilized on the biolayer interferometry sensor
T1 peptide: LAKLDEESILKQK

[2] = biological target: T2, IA peptide IAKLDEESILKQK (XAKLDEESILKQK, X = I)
T2 construct: Immobilized on the biolayer interferometry sensor
T2 peptide: IAKLDEESILKQK

[3] = biological target: T3, VA peptide VAKLDEESILKQK (XAKLDEESILKQK, X = V)
T3 construct: Immobilized on the biolayer interferometry sensor
T3 peptide: VAKLDEESILKQK

[4] = biological target: T4, F peptide FAKLDEESILKQK (XAKLDEESILKQK, X = F)
T4 construct: Immobilized on the biolayer interferometry sensor
T4 peptide: FAKLDEESILKQK

[5] = biological target: T5, W peptide WAKLDEESILKQK (XAKLDEESILKQK, X = W)
T5 construct: Immobilized on the biolayer interferometry sensor
T5 peptide: WAKLDEESILKQK

[6] = biological target: T1, LA peptide LAKLDEESILKQK …
[7] = biological target: T2, IA peptide IAKLDEESILKQK …
[8] = biological target: T4, F peptide FAKLDEESILKQK (XAKLDEESILKQK, …)
[9] = biological target: T3, VA peptide VAKLDEESILKQK …

B1: PS423 (other)
chain: MAPTPAGAAVLDKQQQRRHKHASRYRVLLHNDPVNTMEYVVESLRQVVPQLSEQDAIAVMVEAHNTGVGLVIVCDIEPAEFYCEQLKTKGLTSSIEPED
B1: no binding [1]; no binding [2]; no binding [3]. B1: binds [4]; binds [5].

B2: PS388 (other)
chain: MVTTLSADVYGMATAPTVAPERSNQVVRKTYPNYKVIVLNDDFNTFQHVAECLMKYIPGMSSDRAWDLTNQVHYEGQAIVWVGPQEPAELYHQQLRRAGLTMAPLEAA
B2: binds [1]; no binding [2]; no binding [3]. B2: no binding [5].

B3: PS390 (other)
chain: MLSIAAVTEAPSKGVQTADPKTVRKPYPNYKVIVLNDDFNTFQHVSSCLLKYIPGMSEARAWELTNQVHFEGLAVVWVGPQEQAELYYAQLKNAGLTMAPPEPA
B3: binds [1]; no binding [2]; no binding [3]. B3: binds [4]; no binding [5].

B4: PS565 (other)
chain: MSEFDHEHSGDTSVADPIVTTKTAPKPQKHAENETETRRQPPYNVIILNDEEHTFDYVIELLCKVFRHSLATAQELTWRIHLTGRAVVLTTHKELAELKRDQVLAYGPDPRMSVSKGPLDCFIEPAPGG
B4: binds [6]; binds [7]; binds [8].

B5: PS424 (other)
chain: MSVETIEKRSTTRKLAPQYRVLLHNDDYNSMEYVVQVLMTSVPSITQPQAVNIMMEAHNSGLALVITCAQEHAEFYCETLKGHGLSSTIEPD
B5: no binding [1]; no binding [2]; no binding [3]. B5: binds [4]; binds [5].

B6: PS566 (other)
chain: MSSPSSLDDVQVSTSRAKPANETRTRKQPPYAVIVENDDHHTFLYVIEALMKVCGHAPEKGFVLAQQIHTQGKAMVWSGTLELAELKRDQLRGFGPDNYAPRPVTFPLGVTIEPLP
B6: binds [6]; binds [7]; binds [8].

B7: PS398 (other)
chain: MPLKAQNRSIVGRRDEWPPPTTQSSSETKSESKRVSDTGADTKRKTKTVPKVEKPRLYKVILVNDDYTPREFVLVVLKAVFRMSEDQGYKVMITAHQKGSCVVAVYTRDIAETKAKEAVDLAKEIGFPLMFRTEPEE
B7: no binding [1]; no binding [2]; no binding [3]. B7: binds [4]; binds [5].

B8: PS389 (other)
chain: MLNSAAFKAASASPVIAPERSGQVTQKPYPTYKVIVLNDDFNTFQHVHDCLVKYIPGMTSDRAWQLTHQVHNDGQAIVWVGPQEQAELYHQQLSRAGLTMAPIEAA
B8: binds [1]; no binding [2]; no binding [3]. B8: no binding [5].

B9: PS560 (other)
chain: MTETITTPAERTQTQAEPRSDRAWLWNVVLLDDDEHTYEYVIRMLHTLFGMPVERAFRLAEEVDARGRAVVLTTHKEHAELKRDQVHAFGKDALIASCAGSMSAVLEPAECGSDDED
B9: binds [6]; binds [7]; no binding [8].

B10: PS547 (other)
chain: MGFPTDFRQSIEISTPLGSQQPRFSNASSEPALADPVLVINPRIQPRYHVILLNDDDHTYRYVIEMMLIVFGHPPEKGFLIAKEVDKAGRAICLTTSLEHAEFKQEQVHAYGADPYFGPKCKGSMTAVLEPAE
B10: no binding [9]; no binding [8].

B11: PS555 (other)
chain: MADSAQTGVAEPIQETLRRRKLRDDRRPKRQPPYHVILWNDNDHTYAYVVVMLMQLFGYPAEKGYQLASEVDTQGRAVVLTTTKEHAELKRDQIHAYGKDGLIEKCKGSMWATIEPAPGE
B11: binds [6]; binds [7]; no binding [9].

B12: PS374 (other)
chain: MRWEDPLAAEPVTPGVAPVVEEETDAAVETPWRVILYDDDIHTFEEVILQLMKATGCTPEQGERHAWTVHTRGKDCVYQGDFFDCFRVQGVLREIQLVTEIEG
B12: no binding [2]; no binding [3]; binds [4]. B12: binds [5].

B13: PS404 (other)
chain: MPVSVTAPQTKTKTKPKVERPKLYKVILVNDDFTPREFVVRVLKAEFRMSEDQAAKVMMTAHQRGVCVVAVFTRDVAETKATRATDAGRAKGYPLLFTTEPEE
B13: no binding [1]; no binding [2]; no binding [3]. B13: binds [4]; binds [5].

B14: PS414 (other)
chain: MQAAGNEPPDPQNPGDVGNGGDGGNQDGSNTGVVVKTRTRTRKPAMYKVLMLNDDYTPMEFVVHVLERFFQKNREEATRIMLHVHRRGVGVCGVYTYEVAETKVTQVMDLARQNQHPLQCTIEKE
B14: no binding [2]; no binding [3]; binds [4]. B14: binds [5].

B15: PS559 (other)
chain: MNQAAISPNPDIKPNPSTHKKRASQRQPRYHVILWNDNDHTYHYVVTMLQKLFGHPPRTGIKMATEVDKKGKVIVLTTSREHAELKRDQIHAFGADKLIRRSKGAMAASIEPES
B15: binds [6]; binds [7]; binds [9].

B16: PS568 (other)
chain: MTTPSLPTRETEVEERTEVEPERLYHLVLLDDDQHSYQYVIEMLASIFGYGSEKAWTLARIVDTEGRAILETASHAQCERHQSQIHAYGADSRIPTSVGSMSAVIEEAGTPPQT
B16: binds [6]; binds [7]; binds [9].

B17: PS392 (other)
chain: MSVEIIEKRSTVRKLAPRYRVLLHNDDFNPMEYVVQTLMATVPSLTQPQAVNVMMEAHTNGMGLVIVCALEHAEFYAETLNNHGLGSSIEPDD
B17: no binding [1]; no binding [2]; no binding [3]. B17: binds [4].

B18: PS397 (other)
chain: MSDNEVAPKRKTRVKPKLERPRLYKVILVNDDYTPRDFVVMVLKAIFRMSEEAGYRVMMTAHKLGTSVVVVCARDIAETKAKEATDLGKEAGFPLMFTTEPEE
B18: no binding [1]; no binding [2]; no binding [3]. B18: binds [4]; binds [5].
